Values belong to the binder of their own block, whether it stands above or below them.
Experiments:
[1] = target: hGPC3-C fragment (AA359-580) (human) (UniProt P51654); assay: flow cytometry, intracellular staining of 293T cells transfected with hGPC3-C; gate set on untransfected cells
[2] = target: hGPC3-C fragment (AA359-580) (human) (UniProt P51654); assay: flow cytometry, intracellular staining of 293 cells transfected with hGPC3-C; gate set on untransfected cells

Sequence of hGPC3-C fragment (AA359-580) (human) (P51654 359-580 limits assumed, form in doubt): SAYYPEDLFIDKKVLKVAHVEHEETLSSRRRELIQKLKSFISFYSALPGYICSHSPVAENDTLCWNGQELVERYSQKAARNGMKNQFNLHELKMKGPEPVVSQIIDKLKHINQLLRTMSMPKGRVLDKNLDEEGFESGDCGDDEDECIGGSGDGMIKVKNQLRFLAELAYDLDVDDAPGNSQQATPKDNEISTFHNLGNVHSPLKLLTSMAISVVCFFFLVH

% of events in gate M1 [1]: 4.03%
% of cells in the positive gate [2]: 0.75%
B1: mAb 6G11 (mouse hybridoma antibody) (antibody, V domains shown)
VH: QVQLQQPGSELVRPGASVKLSCKASGYTFTSCWMHWVKQRPGQGLEWIGNIYPGYGNTNYDEKFKNKATLTVDTSSSTAYMQLSGLTSEDSAVYYCTRGSYLYAMDYWGQGTSVTVSS
VL: DIQMNQSPSSLSASLGDTITITCHASQNINVWLSWYQQKPGNIPKLLIYKASNLHTGVPSRFSGSGSGTGFTLTISSLQPEDIATYYCQQGQSYPWTFGGGTKLEIKR

% of events in gate M1 [1]: 0.47%
% of cells in the positive gate [2]: 0.92%
B2: mAb 12D7 (mouse hybridoma antibody) (antibody, V domains shown)
VH: QVQLQQPGSELVRPGASVKLSCKASGYTFTSYWMHWVKQRLGQGLEWIGNIYPGSGSTNYDEKFKSKGTLTVDTSSSTAYMHLSSLTSEDSAVYYCTRGDYDWVFAYWGQGTLVTVSA
VL: DIVMTQSQKFMSTSVGDRVSVTCKASQNVGTNVAWYQQKPGQSPKALIYSASYRYSGVPDRFTGSGSGTDFTLTISNVQSEDLAEYFCQQYNSYPLTFGAGTKLELKR
